# Experimental data from patent US20110059142A1, “ENCAPSULATION OF BIOLOGICALLY ACTIVE AGENTS” (priority 2008, published 2011).
# Assay: In vivo evaluation of HIP-PBCA nanoparticle delivery of dalargin to the brain, intravenous
# Settings: mouse, i.v., 20 minutes following injection, LC-MS-MS
# Method: The ability of the HIP-PBCA nanoparticles to deliver their peptide load to the brain was determined in vivo in the mouse model. HIP-PBCA nanoparticles containing encapsulated dalargin using the HIP process were compared to HIP-PBCA nanoparticles that had had the peptide adsorbed onto the particle surface as reported by Kreuter et al. The nanoparticles were prepared for brain delivery via the intravenous route by coating their surface with polysorbate 80 surfactant. Briefly, the nanoparticles were incubated in PBS containing 1% w/v surfactant for 30 minutes prior to injection. The surfactant has been reported in the literature to indirectly target the nanoparticles to the brain by promoting adsorption of serum apolipoproteins onto the nanoparticle surface. This allows the particles to bind to the apolipoprotein receptor on the blood brain barrier and transcytose to reach the brain. The following formulations were compared: • 1. HIP-PBCA nanoparticles alone (5:1 HIP content) • 2. HIP-PBCA nanoparticles alone (10:1 HIP content) • 3. Dalargin in solution (2.0 mg/kg) • 4. HIP-PBCA nanoparticles with dalargin adsorbed onto the surface (2.0 mg/kg total dose used in formulation) • 5. […]
# The mice were sacrificed at 20 minutes following injection, and the brains and blood samples collected and analysed for the presence of peptide by LC-MS-MS. […]
substance,measurement,value
dalargin (YAGFLR; Humanised sequence of mus musculus and homo sapiens) [9: YAGFLR],Dalargin levels in the brain (detectability),detectable in the brain only when encapsulated within the particles using the HIP process
